Reference: patent US20050025760A1 (KEIO UNIVERSITY, published 2005)

Key:
Test in all cases: immunoprecipitation of point-mutated molecules (FIG. 5)
[1] = target: T1, Dsg3-M3 (human, UniProt P32926 50-615, V53I; D54N; K55Q; N56K)
T1 construct: extracellular domain; also called point-mutated human Dsg3 molecule M3; not shown: His tag of vector pEVmod-His
T1 sequence (looked up): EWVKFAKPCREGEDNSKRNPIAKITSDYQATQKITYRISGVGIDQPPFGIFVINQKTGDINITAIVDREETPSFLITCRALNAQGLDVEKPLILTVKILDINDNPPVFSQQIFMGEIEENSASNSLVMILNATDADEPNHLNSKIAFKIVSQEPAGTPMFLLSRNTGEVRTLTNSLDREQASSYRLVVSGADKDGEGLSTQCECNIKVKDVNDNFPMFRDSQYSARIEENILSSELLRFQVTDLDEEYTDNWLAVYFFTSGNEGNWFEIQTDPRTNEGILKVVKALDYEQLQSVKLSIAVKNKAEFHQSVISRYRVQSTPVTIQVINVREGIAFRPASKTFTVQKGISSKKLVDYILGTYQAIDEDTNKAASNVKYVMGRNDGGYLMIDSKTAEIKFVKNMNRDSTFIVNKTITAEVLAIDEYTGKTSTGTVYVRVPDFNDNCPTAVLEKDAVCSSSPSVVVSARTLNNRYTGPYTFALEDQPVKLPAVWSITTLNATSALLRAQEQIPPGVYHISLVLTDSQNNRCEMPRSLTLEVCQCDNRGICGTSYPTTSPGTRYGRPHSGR

[2] = target: T2, Dsg3-M5 (human, UniProt P32926 50-615, L75I; T77Y)
T2 construct: extracellular domain; also called point-mutated human Dsg3 molecule M5; not shown: His tag of vector pEVmod-His
T2 sequence (looked up): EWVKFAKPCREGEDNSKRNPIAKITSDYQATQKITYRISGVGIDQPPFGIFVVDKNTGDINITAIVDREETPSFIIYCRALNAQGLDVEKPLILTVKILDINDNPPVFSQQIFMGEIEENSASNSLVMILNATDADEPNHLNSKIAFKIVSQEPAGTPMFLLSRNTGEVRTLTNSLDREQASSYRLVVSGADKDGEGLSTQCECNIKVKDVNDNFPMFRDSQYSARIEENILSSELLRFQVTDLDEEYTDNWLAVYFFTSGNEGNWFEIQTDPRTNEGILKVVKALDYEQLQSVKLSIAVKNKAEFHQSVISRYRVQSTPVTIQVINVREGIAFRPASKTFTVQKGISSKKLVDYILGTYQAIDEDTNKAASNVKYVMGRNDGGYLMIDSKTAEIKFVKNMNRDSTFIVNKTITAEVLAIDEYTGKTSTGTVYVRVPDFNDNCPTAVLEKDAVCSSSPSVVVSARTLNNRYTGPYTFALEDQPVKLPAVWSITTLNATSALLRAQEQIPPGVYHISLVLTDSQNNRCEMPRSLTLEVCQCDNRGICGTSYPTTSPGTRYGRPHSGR

[3] = target: T3, Dsg1-M1-2 (human, UniProt Q02413 50-545, H25T; C28Y; A29Q; N31T; Q33K; V34I)
T3 construct: extracellular domain; Dsg1-specific residues changed to the Dsg3-specific ones; also called hDsg1-M1-2
T3 sequence (looked up): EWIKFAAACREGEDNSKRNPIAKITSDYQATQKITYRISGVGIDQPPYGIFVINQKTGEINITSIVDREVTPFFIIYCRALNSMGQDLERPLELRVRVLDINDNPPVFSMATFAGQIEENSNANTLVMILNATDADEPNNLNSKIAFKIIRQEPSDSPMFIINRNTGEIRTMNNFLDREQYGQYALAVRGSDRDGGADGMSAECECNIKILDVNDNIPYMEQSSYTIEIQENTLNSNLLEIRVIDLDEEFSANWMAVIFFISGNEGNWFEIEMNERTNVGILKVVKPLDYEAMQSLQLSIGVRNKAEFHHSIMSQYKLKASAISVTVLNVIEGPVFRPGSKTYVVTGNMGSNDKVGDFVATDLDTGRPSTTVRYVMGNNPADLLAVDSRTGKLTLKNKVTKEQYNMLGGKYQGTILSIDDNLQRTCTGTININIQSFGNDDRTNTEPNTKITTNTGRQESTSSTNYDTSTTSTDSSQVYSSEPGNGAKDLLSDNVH

[4] = target: T4, Dsg1-M7 (human, UniProt Q02413 50-545, I3V; A7K; A8P)
T4 construct: extracellular domain; also called hDsg1-M7
T4 sequence (looked up): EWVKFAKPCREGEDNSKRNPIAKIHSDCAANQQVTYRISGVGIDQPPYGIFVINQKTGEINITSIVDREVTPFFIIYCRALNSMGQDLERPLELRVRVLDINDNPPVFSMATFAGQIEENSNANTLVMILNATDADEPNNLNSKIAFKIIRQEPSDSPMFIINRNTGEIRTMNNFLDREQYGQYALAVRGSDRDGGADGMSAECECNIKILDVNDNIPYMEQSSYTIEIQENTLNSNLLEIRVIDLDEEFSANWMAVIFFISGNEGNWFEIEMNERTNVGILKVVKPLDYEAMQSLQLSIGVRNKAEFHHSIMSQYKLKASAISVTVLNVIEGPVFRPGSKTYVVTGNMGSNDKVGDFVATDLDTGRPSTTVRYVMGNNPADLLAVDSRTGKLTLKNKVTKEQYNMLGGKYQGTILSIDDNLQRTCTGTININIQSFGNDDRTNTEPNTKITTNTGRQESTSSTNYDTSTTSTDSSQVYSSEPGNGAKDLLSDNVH

B1: anti-Dsg3 monoclonal antibody AK23 (antibody, mouse IgG1, V domains shown)
VH: QVQLQQSGTELVKPGASVKLSCKSSGYTFTSYWINWVKQRPGQGLEWIGNINPSNGGINYNEKFKSKATLTVDKSSSTAYMQLKSLTSEDSAVYYCARGGYDGYPWGQGTTVTVS
VL: DIQMTQSPKFLLVSAGDRVTITCKASQSVSYDVAWYQQKPGQSPKLLISYASNRYTGVPDRFTGSGYGSDFTFTISTVQTEDLAVYFCQQDYSSPWTFGGGTKLELKR
notes: Mouse IgG1 kappa hybridoma antibody
[1]
  binding result: binds
[2]
  binding result: binds
[3]
  binding result: no binding
[4]
  binding result: no binding
